Assay results: patent US20250297007A1 (published 2025)
Positions count from the first letter of the chain named.

T1: recombinant protein TCRVB 6-5 (human, biotinylated (captured on a Biotin CAP chip); site not stated)
T1 construct: also called TCRVβ 6-5; TCRβ V6-5*01
T1 TCR beta: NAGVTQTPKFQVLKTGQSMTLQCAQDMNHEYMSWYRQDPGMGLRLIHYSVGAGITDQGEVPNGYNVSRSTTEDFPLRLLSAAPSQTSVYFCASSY

B1: A-H.52 (scFv)
scFv: QVQLVQSGAEVKKPGSSVKVSCKASGYSFTLGYIHWVRQAPGQGLEWMGWFFPGSGNIKYNEKFKGRVTITADTSTSTAYMELSSLRSEDTAVYYCAGSYYSYDVLDYWGQGTTVTVSSGGGGSGGGGSGGGGSGGGGSDIQMTQSPSFLSASVGDRVTITCKASQNVGINVVWHQQKPGKAPKALIYSSSHRYSGVPSRFSGSGSGTEFTLTISSLQPEDFATYFCQQFKSYPLTFGQGTKLEIK
notes: Phage clone, stated to be a monovalent scFv with two mutations in CDRH1; also called Antibody A-H.52
B2: A-H.53 (scFv)
scFv: B1 scFv with T30R, G32T
notes: Phage clone; also called Antibody A-H.53
B3: A-H.54 (scFv)
scFv: B1 scFv with T30H, L31N, G32W
notes: Phage clone; also called Antibody A-H.54
B4: BJM0277 (antibody, V domains shown)
VH: QVQLVQSGAEVKKPGSSVKVSCKASGYSFTTYYIHWVRQAPGQGLEWMGWFFPGSGNIKYNEKFKGRVTITADTSTSTAYMELSSLRSEDTAVYYCAGSYYSYDVLDYWGQGTTVTVSS
VL: DIQMTQSPSFLSASVGDRVTITCKASQNVGINVVWHQQKPGKAPKALIYSSSHRYSGVPSRFSGSGSGTEFTLTISSLQPEDFATYFCQQFKSYPLTFGQGTKLEIKR

Target: T1, recombinant protein TCRVB 6-5
Experiment: SPR-type chip assay; TCRVB 6-5 captured on Biotin CAP Series S chip, construct as analyte, 1:1 binding model, 25C
Experimental: TCRVB 6-5 at 5 ug/mL was immobilized on a Biotin CAP Series S Sensor Chip to 60 RU. A-H.52 was diluted to 50 nM and then serially diluted two fold Association was 120 seconds, dissociation was 300 seconds. This assay was run in 1×HBS-EP+ Buffer pH 7.4 and 25C. The data was fit using a 1:1 binding model. A-H.52 is a phage clones and is a monovalent scFv. A-H.52 has two mutations on CDRH1.
(§1) TCRVB 6-5 at 5 ug/mL was immobilized on a Biotin CAP Series S Sensor Chip to 60 RU. A-H.53 was diluted to 50 nM and then serially diluted two fold. Association was 120 seconds, dissociation was 300 seconds. This assay was run in 1×HBS-EP+ Buffer pH 7.4 and 25C. The data was fit using a 1:1 binding model. A-H.53 (phage clone) affinity is in the pM range (Table 17).
as §1, with “A-H.54” for “A-H.53”, “model.” for “model. A-H.53 (phage clone) affinity is in the pM range (Table 17).”

Binder | Kd
B1 | 1.76 nM
B2 | 0.165 nM
B3 | 2.22 nM
B4 | 35 nM
